PMC2995167 (The Journal of Cell Biology, 2010)

Target: the molecule itself
Assay: bead aggregation assay

B1: NcadEC-Fc (Fc fusion)
chain: DWVIPPVNVLENSRKQFPEELVKIQSDKDKSNTLRYSVTGPGADQNPTGLFIIDPISGLLSVTKPLDREHIPNFHLRAHAVDINGNQMENPIDIIINVIDMNDNRPEFTHQIWNGTVDEGAKPGTFVMTVTSQDKDDPNTANGMLRYKILSQTPESPSSNMFTINNKTGKIITVAAGLDREKVPQYTLIIQATDMEGNPTYGLSNTATAVIRLLDVNDNAPEFTRETFHGEVPENRVNVIVTNLTVTDKDEPGTPAWNAVYRIISGDPTGRFSIPTDPVTNEGLVTVVKPVDFEMNRSFMLTVVADNEVPLASGIHRTRQSTATVSIRVIDVNESPNFDPNPKQIKLEEGLPQWSMLTTFTAHDPDRYMQQTISYSKLYDPANWLEIDPNNGRISTIAVLDRESPYVKNNLYNATFMASDNGVPRASGTGTLQIYLLDINDNAPRVFPQEAEVCERPEPNAINITAVDGDLNPNAGPYAFELPNRPSDIRRNWTLTRISGDHAQLSLKISYLESGIYELPISITDSGNLPMSNTTYLRIKVCQCDHHGDCVDMERIMAAGLGTGA
B1: binds.
